Laboratory results as given in US20150064184A1 (ARMAGEN TECHNOLOGIES, published 2015).

B1: chimeric HIRMAb (chimeric monoclonal antibody against the human insulin receptor) (antibody, human IgG1, kappa)
heavy: not shown
light: DIQMTQSPSSLSASLGERVSLTCRASQDIGGNLYWLQQGPDGTIKRLIYATSSLDSGVPKRFSGSRSGSDYSLTISSLESEDFVDYYCLQYSSSPWTFGGGTKMEIKRTVAAPSVFIFPPSDEQLKSGTASVVCLLNNFYPREAKVQWKVDNALQSGNSQESVTEQDSKDSTYSLSSTLTLSKADYEKHKVYACEVTHQGLSSPVTKSFNRGEC
notes: MW 150 kDa; also called HIR Ab; chimeric HIR Ab
B2: HIR Ab-GUSB fusion protein (human GUSB fused to the carboxyl terminus of the HIR Ab heavy chain) (antibody, human IgG1, kappa)
heavy: not shown
light: DIQMTQSPSSLSASLGERVSLTCRASQDIGGNLYWLQQGPDGTIKRLIYATSSLDSGVPKRFSGSRSGSDYSLTISSLESEDFVDYYCLQYSSSPWTFGGGTKMEIKRTVAAPSVFIFPPSDEQLKSGTASVVCLLNNFYPREAKVQWKVDNALQSGNSQESVTEQDSKDSTYSLSSTLTLSKADYEKHKVYACEVTHQGLSSPVTKSFNRGEC
notes: range 23-633; also called HIRMAb-GUSB fusion protein; pCD-HC-GUSB plus pCD-LC product
B3: HIRMAb-ASA fusion protein (HIR Ab fused at the carboxyl terminus of each heavy chain to mature human arylsulfatase A) (antibody, human IgG1, kappa)
heavy: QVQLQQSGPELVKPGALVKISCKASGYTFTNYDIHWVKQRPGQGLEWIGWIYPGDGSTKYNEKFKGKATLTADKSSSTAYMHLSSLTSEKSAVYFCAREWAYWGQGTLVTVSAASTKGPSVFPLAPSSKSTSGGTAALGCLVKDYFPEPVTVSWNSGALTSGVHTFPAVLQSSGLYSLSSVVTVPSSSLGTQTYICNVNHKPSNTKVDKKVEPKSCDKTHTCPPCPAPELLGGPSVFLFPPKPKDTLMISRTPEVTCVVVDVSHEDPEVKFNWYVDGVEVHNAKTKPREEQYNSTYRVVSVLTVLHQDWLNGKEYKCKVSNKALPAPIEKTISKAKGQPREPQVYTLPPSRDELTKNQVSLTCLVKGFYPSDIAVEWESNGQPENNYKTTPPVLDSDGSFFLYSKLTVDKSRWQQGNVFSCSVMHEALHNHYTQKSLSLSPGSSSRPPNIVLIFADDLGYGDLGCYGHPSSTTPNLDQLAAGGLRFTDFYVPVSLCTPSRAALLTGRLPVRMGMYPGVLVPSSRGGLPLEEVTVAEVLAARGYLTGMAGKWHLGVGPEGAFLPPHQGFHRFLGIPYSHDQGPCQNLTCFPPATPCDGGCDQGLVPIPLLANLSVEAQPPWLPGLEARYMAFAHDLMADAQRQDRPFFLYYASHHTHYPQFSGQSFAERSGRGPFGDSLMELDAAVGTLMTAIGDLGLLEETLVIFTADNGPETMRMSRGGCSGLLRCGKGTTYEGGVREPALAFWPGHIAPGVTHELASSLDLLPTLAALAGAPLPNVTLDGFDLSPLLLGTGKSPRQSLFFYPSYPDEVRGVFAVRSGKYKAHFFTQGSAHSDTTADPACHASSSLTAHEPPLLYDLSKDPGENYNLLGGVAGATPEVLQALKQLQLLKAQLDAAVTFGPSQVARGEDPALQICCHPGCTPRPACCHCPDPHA
light: DIQMTQSPSSLSASLGERVSLTCRASQDIGGNLYWLQQGPDGTIKRLIYATSSLDSGVPKRFSGSRSGSDYSLTISSLESEDFVDYYCLQYSSSPWTFGGGTKMEIKRTVAAPSVFIFPPSDEQLKSGTASVVCLLNNFYPREAKVQWKVDNALQSGNSQESVTEQDSKDSTYSLSSTLTLSKADYEKHKVYACEVTHQGLSSPVTKSFNRGEC
modifications: Cys-515 of SEQ ID NO 10 undergoes post-translational conversion to formylglycine (inferred by the filing from retained enzyme activity)
notes: Antibody-enzyme fusion made in CHO cells and purified on protein A. Hetero-tetramer with an estimated MW of 288 kDa; also called HIR Ab-ASA fusion protein; HIR Ab-ASA fusion antibody

Key:
[1] = biological target: T1, human insulin receptor extracellular domain (HIR ECD) (human, UniProt P06213 28-956, limits assumed); test: ELISA, HIR ECD plated (second experiment)
T1 construct: extracellular domain; The ECD was plated on 96-well dishes for the ELISA

[2] = biological target: T1, human insulin receptor extracellular …; test: ELISA, HIR ECD plated; normalised for a MW of 150 kDa
Description: (§1) The affinity of the fusion protein for the HIR extracellular domain (ECD) was determined with an ELISA. CHO cells permanently transfected with the HIR ECD were grown in serum free media (SFM), and the HIR ECD was purified with a wheat germ agglutinin affinity column, as previously described in Coloma et al. (2000) Pharm Res, 17:266-274. The HIR ECD was plated on Nunc-Maxisorb 96 well dishes and the binding of the HIR Ab, or the HIR Ab-ASA fusion protein, to the HIR ECD was detected with a biotinylated goat anti-human IgG (H+L) secondary antibody, followed by avidin and biotinylated peroxidase (Vector Labs, Burlingame, Calif.). […] The MW of the HIR Ab is 150 kDa, and the MW of the HIR Ab-ASA fusion protein is 288 kDa.

[3] = biological target: T1, human insulin receptor extracellular …; test: ELISA, HIR ECD plated, detected with biotinylated anti-human IgG
[4] = biological target: T1, human insulin receptor extracellular …; test: ELISA, HIR ECD plated on Nunc-Maxisorb wells, detected with biotinylated anti-human IgG
Description: as §1

[5] = biological target: T1, human insulin receptor extracellular …; test: ELISA, HIR ECD plated; normalised for a MW of 288 kDa
Description: as §1

Row | EC50 [1] | EC50 [2] | EC50 [3] | EC50 [4] | EC50 [5] | Binder
1 | 0.25 nM | 0.23 nM | 0.77 nM | 0.035 µg/mL | – | B1
2 | – | – | 0.81 nM | – | – | B2
3 | – | – | – | 0.106 µg/mL | 0.34 nM | B3
